According to US20250381223A1 (UTC THERAPEUTICS SHANGHAI, published 2025):
Residue numbers refer to the chain shown, from its start. Each block holds one binder with its values, some of them ahead of it.

Assays:
[1] = target: T1, mesothelin-Fc recombinant protein (human, UniProt Q13421 296-580, limits assumed); assay: flow cytometry, T cells with CAR mRNA, mesothelin-Fc + PE-anti-IgG-Fc; Control 0.63
T1 construct: construct not described; also called Meso-Fc; not shown: Fc part
Method: Mesothelin CAR mRNA obtained in Example 26 above was introduced into A549 tumor cells and T cells by electroporation, and the procedures are as follows: A549 tumor cells and T cells were collected and washed 3 times with the Opti-MEM medium. The cell pellet was resuspended in the Opti-MEM medium and the cell concentration was adjusted to 1×10e7 cells/mL. 10 μg of RNA was aliquoted into 1.5-mL EP tubes, 100 μL of T cells or A549 cells were added, followed by mixing well. 100 μL of cells mixed with RNA were added to the BTX electroporation cuvette and slight tapping was performed to avoid air bubbles. Electroporation was performed using a BTX instrument under the following parameters: for T cells: 500 V voltage, 0.7 ms; for A549 tumor cells: 300 V voltage, 0.5 ms. The cells were then transferred to a pre-warmed medium and cultured at 37° C. The binding of mesothelin CART cells to the mesothelin-Fc recombinant protein was determined by FACS staining. […] T cells without CAR molecules served as the control (“Mock”).

Meso-biotin = target: T2, Meso-biotin; assay: flow cytometry, T cells with diabody mRNA only, Meso-biotin + PE-Streptavidin; E1 0.29
T2 construct: Meso-Fc and PE-anti-Fc for this staining

CD40-Fc [2] = target: T3, CD40-Fc ( for this staining reagent …, UniProt P25942); assay: flow cytometry, T cells with 10 µg diabody mRNA only, CD40-Fc + PE-anti-Fc; E1 (no mRNA) 0.48
T3 construct: soluble Fc fusion; Staining reagent, detected with PE-anti-Fc

CD40-Fc [3] = target: T3, CD40-Fc; assay: flow cytometry, T cells with diabody mRNA and M12 CAR mRNA, CD40-Fc + PE-anti-Fc; E1 0.48, E2 (M12 only) 0.77
[4] = target: T4, recombinant human CD40-His antigen protein (human, UniProt P25942 21-193); assay: ELISA; plate coated with CD40-His 2 µg/mL; HRP-anti-hFc
T4 construct: Bought protein; also called recombinant CD40-His protein; CD40 antigen; not shown: His tag
Method: The binding activities of the affinity-matured antibodies for antigen CD40 were detected by ELISA. The experimental procedures were as follows: [0637] 1. 50 μL of recombinant CD40-His protein at a concentration of 2 μg/mL was added to each well of an ELISA plate, and the plate was incubated at 4° C. overnight. […] 2. The next day, the ELISA plate was washed 3 times with PBST (containing 0.05% Tween-20). [0639] 3. 250 μL of 5% skim milk powder (dissolved in PBS) was added to each well of the ELISA plate, and the plate was incubated at room temperature for 2 h. [0640] 4. The plate was washed 3 times with PBST, antibodies with different dilution ratios were added to the ELISA plate at 50 μL/well, and the plate was incubated at room temperature for 60 min. [0641] 5. The plate was washed 3 times with PBST, 50 μL of HRP-anti-hFc antibody was added to each well, and the plate was incubated at room temperature for 60 min. [0642] 6. The plate was washed 3 times with PBST, 50 μL of TMB was added to each well, and after color development at room temperature, 50 μL of 2 M HCl was added to each well to stop the reaction. The plate was read at 450 nm.

T1 sequence (Q13421 other isoform, or with tags, fused parts or gaps limits assumed): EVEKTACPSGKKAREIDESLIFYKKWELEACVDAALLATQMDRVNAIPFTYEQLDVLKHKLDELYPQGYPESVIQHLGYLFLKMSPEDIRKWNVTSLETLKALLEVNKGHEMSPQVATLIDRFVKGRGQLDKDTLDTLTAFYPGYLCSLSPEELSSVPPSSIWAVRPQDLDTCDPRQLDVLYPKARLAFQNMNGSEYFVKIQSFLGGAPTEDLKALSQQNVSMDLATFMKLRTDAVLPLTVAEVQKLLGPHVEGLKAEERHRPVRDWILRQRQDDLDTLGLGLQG

B5: 4.6 (bispecific antibody)
single chain, scFv-G4S-scFv: QVQLVQSGAEVKKPGSSVKVSCKASGGTFSSYAISWVRQAPGQGLEWMGMINPSGGTTSYAQKFQGRVTMTRDTSTSTVYMELSSLRPEDTAVYYCARGFRMDQWGQGTLVTVSSGGGGSGGGGSGGGGSQSALTQPPSASGSPGQSVTISCTGTSSDVGAYNFVSWYQQHPGNAPKLIIYDVRKRPSGIPDRFSASKSGNTASLTVSGLQADDEADYYCSSYAGNNNLVFGGGTKLTVLGGGGSQVKLQESGPGLVKPSETLSITCTVSGFSLSDYGVHWVRQSPGKGLEWLGVIWAGGGTNYNSALMSRKTISKDNSKSQVFLKMSSLTAADTAVYYCARDKGYSYYYSMDYWGQGTTVTVSSGGGGSGGGGSGGGGSDIQLTQSPSSLSVSVGDRVTISCRASESVEYYVTSLMQWYQQKPGQAPKLLIFAASNVESGVPSRFSGSGSGTNFTLTISSVQEEDFAMYFCQQSRKVPYTFGGGTKLEIK
notes: Expressed from mRNA in T cells; A signal peptide is not described; also called parent diabody 4.6
percent of cells in the gate (Meso-biotin): 0.72% | percent of cells in the gate (CD40-Fc [2]): 81.6% | percent of cells in the gate (CD40-Fc [3]): 83.9%

B6: 5.28 (bispecific antibody)
single chain, scFv-G4S-scFv: B5 single chain, scFv-G4S-scFv with V183T
percent of cells in the gate (Meso-biotin): 0.94% | percent of cells in the gate (CD40-Fc [2]): 85.8% | percent of cells in the gate (CD40-Fc [3]): 87.4%

B7: 5.12 (bispecific antibody)
single chain, scFv-G4S-scFv: B5 single chain, scFv-G4S-scFv with I34V, S188R
percent of cells in the gate (Meso-biotin): 1.11% | percent of cells in the gate (CD40-Fc [2]): 93.6% | percent of cells in the gate (CD40-Fc [3]): 87.9%

B8: 5.25 (bispecific antibody)
single chain, scFv-G4S-scFv: B5 single chain, scFv-G4S-scFv with N228R
percent of cells in the gate (Meso-biotin): 2.36% | percent of cells in the gate (CD40-Fc [2]): 92.7% | percent of cells in the gate (CD40-Fc [3]): 92.9%

B9: 5.36 (bispecific antibody)
single chain, scFv-G4S-scFv: B5 single chain, scFv-G4S-scFv with E10Q, S188I
percent of cells in the gate (Meso-biotin): 1.14% | percent of cells in the gate (CD40-Fc [2]): 88% | percent of cells in the gate (CD40-Fc [3]): 94.2%

B10: 5.17 (bispecific antibody)
single chain, scFv-G4S-scFv: B5 single chain, scFv-G4S-scFv with N228E, L229M
notes: how the two are joined there is not described; also called diabody part of M12-5.17 and 5.17-M12
percent of cells in the gate (Meso-biotin): 1.12% | percent of cells in the gate (CD40-Fc [2]): 82.1% | percent of cells in the gate (CD40-Fc [3]): 88.1%

Further lines, results first:

percent of cells in the gate [1]: 80.8%
B1: anti-mesothelin scFv-M8 (scFv)
scFv: DIQLTQSPSSLSASVGDRVTITCRASQSISSSLNWYQQKPGKAPKLLIYAASSLQSGVPSRFSGSGSGTDFTLTISSLQPEDFATYSCQQSYSTPLTFGGGTKVEIKGGGGSGGGGSGGGGSQVHLVESGGGVVQPGRSLRVSCAASGFTFSGYAMYWVRQAPGKGLEYVSAITTNGGSTNYADSVKGRFTISRDNSKNTLYLQMSSLRAGDTAVYYCARGAPGYRGYYMDVWGKGTTVTVSS
notes: On mRNA-electroporated T cells as CAR

percent of cells in the gate [1]: 71.1%
B2: anti-mesothelin scFv-M13 (scFv)
scFv: AIRMTQSPSSLSASVGDRVTITCRASQGISNSLAWYQQKPGKAPKLLLYAASRLESGVPSRFSGSGSGTDYTLTISSLQPEDFATYYCQQYYSTPFTFGPGTKLEIKGGGGSGGGGSGGGGSQVQLVQSGAEVKKPGSSVKVSCKTSADTFSANTINWVRQAPGHGLEWMGRIIPSLNIRDYAQEFQGRVTFTADESTNTVYMQLTSLRSEDTAVYYCARDPGSTWSPNQFFPHWGQGTLVTVSS
notes: as for B1

percent of cells in the gate [1]: 9.53%
B3: M18 (scFv)
chain 1: QVQLVQSGGGLVQPGGSLRLSCAASGFTFSSYWMHWVRQAPGKGLVWVSRINSDGSSTSYADSVKGRFTISRDNAKNTLYLQMNSLRAEDTAVYYCVRTGWVGSYYYYMDVWGKGTTVTVSS
chain 2: EIVLTQSPGTLSLSPGERATLSCRASQSVSSNYLAWYQQKPGQPPRLLIYDVSTRATGIPARFSGGGSGTDFTLTISSLEPEDFAVYYCQQRSNWPPWTFGQGTKVEIK

percent of cells in the gate [1]: 48.8%
B4: anti-mesothelin scFv-M15 (scFv)
scFv: DIQLTQSPSSLSASIGDRVTITCRASQGVNSALAWYQQKPGKPPNLLIYDASSLESGVPSRFSGSGSGRDFTLTISSLQPEDFATYYCQQFSSYPLTFGGGTKVDIKGGGGSGGGGSGGGGSQVQLVQSGAEVKKPGASVKVSCKASGYTFTSYYMHWVRQAPGQGLEWMGIINPSGGSTSYAQKFQGRVTMTRDTSTSTVYMELSSLRSEDTAVYYCARAQRGGSVYFDYWGQGTLVTVSS
notes: as for B1

percent of cells in the gate [1]: 36.3%
B11: anti-mesothelin scFv-M7 (scFv)
scFv: DIRLTQSPSSLSASLGDRVTITCRASQAISSALAWYQQKPGKAPRLLIYDASTLESGVPSRFSGSGSGTDFTLTISSLQPEDFATYYCQQADSFPLTFGGGTKLEIKGGGGSGGGGSGGGGSQVQLVQSGAEVKKSGESLKISCKGSGYGFGAYWIAWVRQMPGKGLEWMGIIYPGDSRVIYSPYFQGQVTISADKSISTAYLQWSSLKASDTAMYYCARFGGPKFATNWFDIWGQGTTVTVSS
notes: as for B1

EC50 [4]: 0.124 mg/L
B12: 4052.12 (antibody, V domains shown)
VH: QVQLVQSGAEVKKPGSSVKVSCKASGGTFSSYAVSWVRQAPGQGLEWMGMINPSGGTTSYAQKFQGRVTMTRDTSTSTVYMELSSLRPEDTAVYYCARGFRMDQWGQGTLVTVSS
VL: QSALTQPPSASGSPGQSVTISCTGTSSDVGAYNFVSWYQQHPGNAPKLIIYDVRKRPRGIPDRFSASKSGNTASLTVSGLQADDEADYYCSSYAGNNNLVFGGGTKLTVL

EC50 [4]: 0.111 mg/L
B13: 4052.25 (antibody, V domains shown)
VH: B12 VH with V34I
VL: B12 VL with R58S, N98R

EC50 [4]: 0.116 mg/L
B14: 4052.28 (antibody, V domains shown)
VH: B12 VH with V34I
VL: B12 VL with V53T, R58S

EC50 [4]: 0.134 mg/L
B15: 4052.36 (antibody, V domains shown)
VH: B12 VH with E10Q, V34I
VL: B12 VL with R58I
